From paper doi:10.1101/2020.03.30.016154 (bioRxiv, 2020)

Molecular target: the molecule itself
Test: cryo-EM structure

B1: full-length mouse serotonin (3A) receptor (5-HT3AR) (receptor, UniProt P23979-2 24-483, looked up)
chain: SRRRATQARDTTQPALLRLSDHLLANYKKGVRPVRDWRKPTTVSIDVIMYAILNVDEKNQVLTTYIWYRQYWTDEFLQWTPEDFDNVTKLSIPTDSIWVPDILINEFVDVGKSPNIPYVYVHHRGEVQNYKPLQLVTACSLDIYNFPFDVQNCSLTFTSWLHTIQDINITLWRSPEEVRSDKSIFINQGEWELLEVFPQFKEFSIDISNSYAEMKFYVIIRRRPLFYAVSLLLPSIFLMVVDIVGFCLPPDSGERVSFKITLLLGYSVFLIIVSDTLPATAIGTPLIGVYFVVCMALLVISLAETIFIVRLVHKQDLQRPVPDWLRHLVLDRIAWILCLGEQPMAHRPPATFQANKTDDCSAMGNHCSHVGGPQDLEKTPRGRGSPLPPPREASLAVRGLLQELSSIRHFLEKRDEMREVARDWLRVGYVLDRLLFRIYLLAVLAYSITLVTLWSIWHYS
stoichiometry N: 5
